Target: T1, CD3 epsilon homodimer protein (UniProt P07766 23-126)
T1 construct: also called CD3 (CD3 epsilon)
Test: SPR Biacore T200, CD3e homodimer on chip, vs unaltered GLS3000 antibody

T1 sequence (P07766 23-126): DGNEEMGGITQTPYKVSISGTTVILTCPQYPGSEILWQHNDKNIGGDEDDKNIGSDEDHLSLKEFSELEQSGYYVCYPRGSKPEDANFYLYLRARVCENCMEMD

Binder	ratio of amounts bound (Z=Y/X)
GLS3000 T92A (antibody, name in Kabat numbering, V domains shown, one-arm IgG as m2) VH: QVQLVESGGGVVQPGRSLRLSCAASGFTFSNAWMHWVRQAPGKGLEWVAQIKAKSNNYATYYAESVKGRFTISRDDSKNSLYLQMNSLKTEDTAVYYCRYVHYGAYYGVDAWGQGTTVTVSS VL: DIVMTQSPLSLPVTPGEPASISCRSSQSLVHSNRNTYLHWYQQKPGQAPRLLIYKVSNRFSGVPDRFSGSGSGTDFTLKISRVEAEDVGVYYCGQGAQVPYTFGQGTKLEIK	0.63
GLS3000 T92I (antibody, name in Kabat numbering, V domains shown, one-arm IgG as m2) VH: QVQLVESGGGVVQPGRSLRLSCAASGFTFSNAWMHWVRQAPGKGLEWVAQIKAKSNNYATYYAESVKGRFTISRDDSKNSLYLQMNSLKTEDTAVYYCRYVHYGAYYGVDAWGQGTTVTVSS VL: DIVMTQSPLSLPVTPGEPASISCRSSQSLVHSNRNTYLHWYQQKPGQAPRLLIYKVSNRFSGVPDRFSGSGSGTDFTLKISRVEAEDVGVYYCGQGIQVPYTFGQGTKLEIK	0.34
GLS3000 T92P (antibody, name in Kabat numbering, V domains shown, one-arm IgG as m2) VH: QVQLVESGGGVVQPGRSLRLSCAASGFTFSNAWMHWVRQAPGKGLEWVAQIKAKSNNYATYYAESVKGRFTISRDDSKNSLYLQMNSLKTEDTAVYYCRYVHYGAYYGVDAWGQGTTVTVSS VL: DIVMTQSPLSLPVTPGEPASISCRSSQSLVHSNRNTYLHWYQQKPGQAPRLLIYKVSNRFSGVPDRFSGSGSGTDFTLKISRVEAEDVGVYYCGQGPQVPYTFGQGTKLEIK	0.26
GLS3000 T92L (antibody, name in Kabat numbering, V domains shown, one-arm IgG as m2) VH: QVQLVESGGGVVQPGRSLRLSCAASGFTFSNAWMHWVRQAPGKGLEWVAQIKAKSNNYATYYAESVKGRFTISRDDSKNSLYLQMNSLKTEDTAVYYCRYVHYGAYYGVDAWGQGTTVTVSS VL: DIVMTQSPLSLPVTPGEPASISCRSSQSLVHSNRNTYLHWYQQKPGQAPRLLIYKVSNRFSGVPDRFSGSGSGTDFTLKISRVEAEDVGVYYCGQGLQVPYTFGQGTKLEIK	0.42
GLS3000 T92S (antibody, name in Kabat numbering, V domains shown, one-arm IgG as m2) VH: QVQLVESGGGVVQPGRSLRLSCAASGFTFSNAWMHWVRQAPGKGLEWVAQIKAKSNNYATYYAESVKGRFTISRDDSKNSLYLQMNSLKTEDTAVYYCRYVHYGAYYGVDAWGQGTTVTVSS VL: DIVMTQSPLSLPVTPGEPASISCRSSQSLVHSNRNTYLHWYQQKPGQAPRLLIYKVSNRFSGVPDRFSGSGSGTDFTLKISRVEAEDVGVYYCGQGSQVPYTFGQGTKLEIK	0.96
GLS3000 T92E (antibody, name in Kabat numbering, V domains shown, one-arm IgG as m2) VH: QVQLVESGGGVVQPGRSLRLSCAASGFTFSNAWMHWVRQAPGKGLEWVAQIKAKSNNYATYYAESVKGRFTISRDDSKNSLYLQMNSLKTEDTAVYYCRYVHYGAYYGVDAWGQGTTVTVSS VL: DIVMTQSPLSLPVTPGEPASISCRSSQSLVHSNRNTYLHWYQQKPGQAPRLLIYKVSNRFSGVPDRFSGSGSGTDFTLKISRVEAEDVGVYYCGQGEQVPYTFGQGTKLEIK	0.17
GLS3000 T92Y (antibody, name in Kabat numbering, V domains shown, one-arm IgG as m2) VH: QVQLVESGGGVVQPGRSLRLSCAASGFTFSNAWMHWVRQAPGKGLEWVAQIKAKSNNYATYYAESVKGRFTISRDDSKNSLYLQMNSLKTEDTAVYYCRYVHYGAYYGVDAWGQGTTVTVSS VL: DIVMTQSPLSLPVTPGEPASISCRSSQSLVHSNRNTYLHWYQQKPGQAPRLLIYKVSNRFSGVPDRFSGSGSGTDFTLKISRVEAEDVGVYYCGQGYQVPYTFGQGTKLEIK	0.33
GLS3000 V27cE (antibody, name in Kabat numbering, V domains shown, one-arm IgG as m2) VH: QVQLVESGGGVVQPGRSLRLSCAASGFTFSNAWMHWVRQAPGKGLEWVAQIKAKSNNYATYYAESVKGRFTISRDDSKNSLYLQMNSLKTEDTAVYYCRYVHYGAYYGVDAWGQGTTVTVSS VL: DIVMTQSPLSLPVTPGEPASISCRSSQSLEHSNRNTYLHWYQQKPGQAPRLLIYKVSNRFSGVPDRFSGSGSGTDFTLKISRVEAEDVGVYYCGQGTQVPYTFGQGTKLEIK	0.61
GLS3000 T92D (antibody, name in Kabat numbering, V domains shown, one-arm IgG as m2) VH: QVQLVESGGGVVQPGRSLRLSCAASGFTFSNAWMHWVRQAPGKGLEWVAQIKAKSNNYATYYAESVKGRFTISRDDSKNSLYLQMNSLKTEDTAVYYCRYVHYGAYYGVDAWGQGTTVTVSS VL: DIVMTQSPLSLPVTPGEPASISCRSSQSLVHSNRNTYLHWYQQKPGQAPRLLIYKVSNRFSGVPDRFSGSGSGTDFTLKISRVEAEDVGVYYCGQGDQVPYTFGQGTKLEIK	0.18
GLS3000 T97P (antibody, name in Kabat numbering, V domains shown, one-arm IgG as m2) VH: QVQLVESGGGVVQPGRSLRLSCAASGFTFSNAWMHWVRQAPGKGLEWVAQIKAKSNNYATYYAESVKGRFTISRDDSKNSLYLQMNSLKTEDTAVYYCRYVHYGAYYGVDAWGQGTTVTVSS VL: DIVMTQSPLSLPVTPGEPASISCRSSQSLVHSNRNTYLHWYQQKPGQAPRLLIYKVSNRFSGVPDRFSGSGSGTDFTLKISRVEAEDVGVYYCGQGTQVPYPFGQGTKLEIK	0.31
GLS3000 V27cD (antibody, name in Kabat numbering, V domains shown, one-arm IgG as m2) VH: QVQLVESGGGVVQPGRSLRLSCAASGFTFSNAWMHWVRQAPGKGLEWVAQIKAKSNNYATYYAESVKGRFTISRDDSKNSLYLQMNSLKTEDTAVYYCRYVHYGAYYGVDAWGQGTTVTVSS VL: DIVMTQSPLSLPVTPGEPASISCRSSQSLDHSNRNTYLHWYQQKPGQAPRLLIYKVSNRFSGVPDRFSGSGSGTDFTLKISRVEAEDVGVYYCGQGTQVPYTFGQGTKLEIK	0.32

Now from value to binder:

ratio of amounts bound (Z=Y/X)	Binder
0.84	GLS3000 V51G (antibody, name in Kabat numbering, V domains shown, one-arm IgG as m2) VH: QVQLVESGGGVVQPGRSLRLSCAASGFTFSNAWMHWVRQAPGKGLEWVAQIKAKSNNYATYYAESVKGRFTISRDDSKNSLYLQMNSLKTEDTAVYYCRYVHYGAYYGVDAWGQGTTVTVSS VL: DIVMTQSPLSLPVTPGEPASISCRSSQSLVHSNRNTYLHWYQQKPGQAPRLLIYKGSNRFSGVPDRFSGSGSGTDFTLKISRVEAEDVGVYYCGQGTQVPYTFGQGTKLEIK
0.32	GLS3000 V51P (antibody, name in Kabat numbering, V domains shown, one-arm IgG as m2) VH: QVQLVESGGGVVQPGRSLRLSCAASGFTFSNAWMHWVRQAPGKGLEWVAQIKAKSNNYATYYAESVKGRFTISRDDSKNSLYLQMNSLKTEDTAVYYCRYVHYGAYYGVDAWGQGTTVTVSS VL: DIVMTQSPLSLPVTPGEPASISCRSSQSLVHSNRNTYLHWYQQKPGQAPRLLIYKPSNRFSGVPDRFSGSGSGTDFTLKISRVEAEDVGVYYCGQGTQVPYTFGQGTKLEIK
0.64	GLS3000 V51E (antibody, name in Kabat numbering, V domains shown, one-arm IgG as m2) VH: QVQLVESGGGVVQPGRSLRLSCAASGFTFSNAWMHWVRQAPGKGLEWVAQIKAKSNNYATYYAESVKGRFTISRDDSKNSLYLQMNSLKTEDTAVYYCRYVHYGAYYGVDAWGQGTTVTVSS VL: DIVMTQSPLSLPVTPGEPASISCRSSQSLVHSNRNTYLHWYQQKPGQAPRLLIYKESNRFSGVPDRFSGSGSGTDFTLKISRVEAEDVGVYYCGQGTQVPYTFGQGTKLEIK
0.33	GLS3000 V51D (antibody, name in Kabat numbering, V domains shown, one-arm IgG as m2) VH: QVQLVESGGGVVQPGRSLRLSCAASGFTFSNAWMHWVRQAPGKGLEWVAQIKAKSNNYATYYAESVKGRFTISRDDSKNSLYLQMNSLKTEDTAVYYCRYVHYGAYYGVDAWGQGTTVTVSS VL: DIVMTQSPLSLPVTPGEPASISCRSSQSLVHSNRNTYLHWYQQKPGQAPRLLIYKDSNRFSGVPDRFSGSGSGTDFTLKISRVEAEDVGVYYCGQGTQVPYTFGQGTKLEIK
0.84	GLS3000 V27cL (antibody, name in Kabat numbering, V domains shown, one-arm IgG as m2) VH: QVQLVESGGGVVQPGRSLRLSCAASGFTFSNAWMHWVRQAPGKGLEWVAQIKAKSNNYATYYAESVKGRFTISRDDSKNSLYLQMNSLKTEDTAVYYCRYVHYGAYYGVDAWGQGTTVTVSS VL: DIVMTQSPLSLPVTPGEPASISCRSSQSLLHSNRNTYLHWYQQKPGQAPRLLIYKVSNRFSGVPDRFSGSGSGTDFTLKISRVEAEDVGVYYCGQGTQVPYTFGQGTKLEIK
0.96	GLS3000 V27cI (antibody, name in Kabat numbering, V domains shown, one-arm IgG as m2) VH: QVQLVESGGGVVQPGRSLRLSCAASGFTFSNAWMHWVRQAPGKGLEWVAQIKAKSNNYATYYAESVKGRFTISRDDSKNSLYLQMNSLKTEDTAVYYCRYVHYGAYYGVDAWGQGTTVTVSS VL: DIVMTQSPLSLPVTPGEPASISCRSSQSLIHSNRNTYLHWYQQKPGQAPRLLIYKVSNRFSGVPDRFSGSGSGTDFTLKISRVEAEDVGVYYCGQGTQVPYTFGQGTKLEIK
0.3	GLS3000 V27cP (antibody, name in Kabat numbering, V domains shown, one-arm IgG as m2) VH: QVQLVESGGGVVQPGRSLRLSCAASGFTFSNAWMHWVRQAPGKGLEWVAQIKAKSNNYATYYAESVKGRFTISRDDSKNSLYLQMNSLKTEDTAVYYCRYVHYGAYYGVDAWGQGTTVTVSS VL: DIVMTQSPLSLPVTPGEPASISCRSSQSLPHSNRNTYLHWYQQKPGQAPRLLIYKVSNRFSGVPDRFSGSGSGTDFTLKISRVEAEDVGVYYCGQGTQVPYTFGQGTKLEIK
0.81	GLS3000 V51I (antibody, name in Kabat numbering, V domains shown, one-arm IgG as m2) VH: QVQLVESGGGVVQPGRSLRLSCAASGFTFSNAWMHWVRQAPGKGLEWVAQIKAKSNNYATYYAESVKGRFTISRDDSKNSLYLQMNSLKTEDTAVYYCRYVHYGAYYGVDAWGQGTTVTVSS VL: DIVMTQSPLSLPVTPGEPASISCRSSQSLVHSNRNTYLHWYQQKPGQAPRLLIYKISNRFSGVPDRFSGSGSGTDFTLKISRVEAEDVGVYYCGQGTQVPYTFGQGTKLEIK
0.77	GLS3000 V27cY (antibody, name in Kabat numbering, V domains shown, one-arm IgG as m2) VH: QVQLVESGGGVVQPGRSLRLSCAASGFTFSNAWMHWVRQAPGKGLEWVAQIKAKSNNYATYYAESVKGRFTISRDDSKNSLYLQMNSLKTEDTAVYYCRYVHYGAYYGVDAWGQGTTVTVSS VL: DIVMTQSPLSLPVTPGEPASISCRSSQSLYHSNRNTYLHWYQQKPGQAPRLLIYKVSNRFSGVPDRFSGSGSGTDFTLKISRVEAEDVGVYYCGQGTQVPYTFGQGTKLEIK
0.51	GLS3000 V27cS (antibody, name in Kabat numbering, V domains shown, one-arm IgG as m2) VH: QVQLVESGGGVVQPGRSLRLSCAASGFTFSNAWMHWVRQAPGKGLEWVAQIKAKSNNYATYYAESVKGRFTISRDDSKNSLYLQMNSLKTEDTAVYYCRYVHYGAYYGVDAWGQGTTVTVSS VL: DIVMTQSPLSLPVTPGEPASISCRSSQSLSHSNRNTYLHWYQQKPGQAPRLLIYKVSNRFSGVPDRFSGSGSGTDFTLKISRVEAEDVGVYYCGQGTQVPYTFGQGTKLEIK
